Source: patent US20030032785

Assays:
[1] = tested on: T1, VEGF165 (vascular endothelial growth factor, 165 aa form) (Homo sapiens), P15692-4; test: filter; settings: 2'-NH2 at all C and U; 2'-OMe A5,A16,G13,G17,G20,G24-26,G28; PS 2'-deoxy T caps 1-4 and 29-33
T1 sequence: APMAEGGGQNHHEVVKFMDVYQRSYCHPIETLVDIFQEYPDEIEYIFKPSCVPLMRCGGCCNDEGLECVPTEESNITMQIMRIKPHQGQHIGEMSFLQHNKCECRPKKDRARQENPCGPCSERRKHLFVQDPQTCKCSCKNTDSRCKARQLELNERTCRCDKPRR

[2] = tested on: T1, VEGF165 (vascular endothelial growth factor, 165 aa form) (Homo sapiens), P15692-4; test: competition; settings: 2'-NH2 at all C and U; 2'-OMe A5,A16,G13,G17,G20,G24-26,G28; PS 2'-deoxy T caps 1-4 and 29-33; 125I-VEGF receptor binding

Sequence: TTTACCCUGAUGGUAGACGCCGGGGUGTTTTT [NX-214]
- Kd [1]: 0.2 nM
- Ki [2]: 1 nM
